Measurements taken from publication PMC3335016, “Analysis of the Nse3/MAGE-Binding Domain of the Nse4/EID Family Proteins” (PLoS ONE, 2012).

Experiments:
Assay in all cases: ELISA; PEPSCAN ELISA; biotinylated EID2 peptides (400 nM) on streptavidin-coated plates; His-S-MAGEC2(129-339) 200–400 nM, 4°C overnight; anti-His detection
Conditions in all cases: both partners purified
[1] = molecular target: T1, EID2 peptide #1 (Q197A) (human, Q197A (stands in the printed letters), biotin, linked via the SGSG spacer)
T1 construct: source: synthetic peptide (Mimotopes)
T1 peptide: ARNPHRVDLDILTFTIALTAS

[2] = molecular target: T2, EID2 peptide #2 (R198A) (human, R198A (stands in the printed letters), biotin, linked via the SGSG spacer)
T2 construct: source: synthetic peptide (Mimotopes)
T2 peptide: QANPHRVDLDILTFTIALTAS

[3] = molecular target: T3, EID2 peptide #6 (R202A) (human, R202A (stands in the printed letters), biotin, linked via the SGSG spacer)
T3 construct: source: synthetic peptide (Mimotopes)
T3 peptide: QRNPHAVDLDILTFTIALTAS

[4] = molecular target: T4, EID2 peptide #9 (L205A) (human, L205A (stands in the printed letters), biotin, linked via the SGSG spacer)
T4 construct: source: synthetic peptide (Mimotopes)
T4 peptide: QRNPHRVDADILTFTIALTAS

[5] = molecular target: T5, EID2 peptide #10 (D206A) (human, D206A (stands in the printed letters), biotin, linked via the SGSG spacer)
T5 construct: source: synthetic peptide (Mimotopes)
T5 peptide: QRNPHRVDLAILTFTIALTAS

[6] = molecular target: T6, EID2 peptide #11 (I207A) (human, I207A (stands in the printed letters), biotin, linked via the SGSG spacer)
T6 construct: source: synthetic peptide (Mimotopes)
T6 peptide: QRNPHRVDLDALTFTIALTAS

[7] = molecular target: T7, EID2 peptide #12 (L208A) (human, L208A (stands in the printed letters), biotin, linked via the SGSG spacer)
T7 construct: source: synthetic peptide (Mimotopes)
T7 peptide: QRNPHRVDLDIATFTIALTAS

[8] = molecular target: T8, EID2 peptide #14 (F210A) (human, F210A (stands in the printed letters), biotin, linked via the SGSG spacer)
T8 construct: source: synthetic peptide (Mimotopes)
T8 peptide: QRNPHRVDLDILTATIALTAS

[9] = molecular target: T9, EID2 peptide #16 (I212A) (human, I212A (stands in the printed letters), biotin, linked via the SGSG spacer)
T9 construct: source: synthetic peptide (Mimotopes)
T9 peptide: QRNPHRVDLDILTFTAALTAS

[10] = molecular target: T10, EID2 peptide #17 (L214A) (human, L214A (stands in the printed letters), biotin, linked via the SGSG spacer)
T10 construct: source: synthetic peptide (Mimotopes)
T10 peptide: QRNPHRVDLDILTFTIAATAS

[11] = molecular target: T11, EID2 peptide #18 (T215A) (human, T215A (stands in the printed letters), biotin, linked via the SGSG spacer)
T11 construct: source: synthetic peptide (Mimotopes)
T11 peptide: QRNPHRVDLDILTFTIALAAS

[12] = molecular target: T12, EID2 peptide #19 (S217A) (human, S217A (stands in the printed letters), biotin, linked via the SGSG spacer)
T12 construct: source: synthetic peptide (Mimotopes)
T12 peptide: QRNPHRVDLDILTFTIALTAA

percent of wt binding affinity [1]: ~30 % of wt
percent of WT affinity [2]: < 20 % of WT affinity
percent of WT affinity [3]: < 20 % of WT affinity
percent of wt binding affinity [4]: ~30 % of wt
percent of wt binding affinity [5]: ~30 % of wt
percent of wt binding affinity [6]: ~30 % of wt
percent of wt binding affinity [7]: ~30 % of wt
percent of WT affinity [8]: < 20 % of WT affinity
percent of WT affinity [9]: < 20 % of WT affinity
percent of WT affinity [10]: < 20 % of WT affinity
percent of wt binding affinity [11]: ~30 % of wt
percent of wt binding affinity [12]: ~30 % of wt
B1: His-S-MAGEC2(129-339) (domain or fragment, human, UniProt Q9UBF1 129-339, looked up)
chain: GLPDSESSFTYTLDEKVAELVEFLLLKYEAEEPVTEAEMLMIVIKYKDYFPVILKRAREFMELLFGLALIEVGPDHFCVFANTVGLTDEGSDDEGMPENSLLIIILSVIFIKGNCASEEVIWEVLNAVGVYAGREHFVYGEPRELLTKVWVQGHYLEYREVPHSSPPYYEFLWGPRAHSESIKKKVLEFLAKLNNTVPSSFPSWYKDALKD
notes: source: E. coli C41, purified (His-TRAP column, FPLC)
